This note sets out measurements from article doi:10.1101/2023.08.24.554616.

The target in this assay is MDM2 SWIB domain, Danio rerio (Danio rerio). In words: fluorescence polarisation.

Some results are limits rather than exact numbers.

One may read the Kd as the constant that tells how readily two partners part at equilibrium. Low values mean higher affinity, high ones lower affinity. As to “alternative p53TAD_(D.rerio)^17-32 (P79734), ending with IIQPP (peptide)”, the Kd was determined as 580 nM. Consider “p53TAD_(D.rerio)^17-32 triple Ala mutant (AAAQP) (peptide)”, for which the fold reduced affinity against p53TAD (D.rerio)^17-32 turned out to be 7.7 fold. The substance “p53TAD_(D.rerio)^10-75 (domain or fragment)” registered a Kd of 49 nM and a fold higher affinity than p53TAD (D.rerio)^15-27 of more than 70 fold. In turn, “p53TAD_(D.rerio)^12-55 (domain or fragment)” showed a Kd of 180 nM.
